Bridges are numbered along the chain shown (N, C = ends). Where no end group is shown, it is not given here. [ ]: non-standard residue; d: D form. 1Nal = N[C@@H](Cc1cccc2ccccc12)C(=O)O; 2Nal = N[C@@H](Cc1ccc2ccccc2c1)C(=O)O; d2Nal = N[C@H](Cc1ccc2ccccc2c1)C(=O)O; hPhe = N[C@@H](CCc1ccccc1)C(=O)O; Cha = N[C@@H](CC1CCCCC1)C(=O)O; dCha = N[C@H](CC1CCCCC1)C(=O)O; dTle = CC(C)(C)[C@@H](N)C(=O)O; Nle = CCCC[C@H](N)C(=O)O; Apn = not defined here; Bal = not defined here; Ahx = NCCCCCC(=O)O; GABA = NCCCC(=O)O; βAla = NCCC(=O)O
B1: Ac-Nle-c(Cys-D-Ala-His-D-2-Nal-Arg-1-Nal-Cys)-NH2 (peptide)
chain: Ac-[Nle]C[dA]H[d2Nal]R[1Nal]C-NH2
modifications: disulfide 2-8
SMILES: CCCC[C@H](NC(C)=O)C(=O)N[C@H]1CSSC[C@@H](C(N)=O)NC(=O)[C@H](Cc2cccc3ccccc23)NC(=O)[C@H](CCCNC(=N)N)NC(=O)[C@@H](Cc2ccc3ccccc3c2)NC(=O)[C@H](Cc2c[nH]cn2)NC(=O)[C@@H](C)NC1=O
B2: Ac-Nle-c(Cys-His-D-Phe-Arg-Trp-Ahx-Cys)-NH2 (peptide)
chain: Ac-[Nle]CH[dF]RW[Ahx]C-NH2
modifications: disulfide 2-8
SMILES: CCCC[C@H](NC(C)=O)C(=O)N[C@H]1CSSC[C@@H](C(N)=O)NC(=O)CCCCCNC(=O)[C@H](Cc2c[nH]c3ccccc23)NC(=O)[C@H](CCCNC(=N)N)NC(=O)[C@@H](Cc2ccccc2)NC(=O)[C@H](Cc2c[nH]cn2)NC1=O
B3: Ac-Nle-c(Cys-D-Ala-His-D-2-Nal-Arg-2-Nal-Cys)-NH2 (peptide)
chain: Ac-[Nle]C[dA]H[d2Nal]R[2Nal]C-NH2
modifications: disulfide 2-8
SMILES: CCCC[C@H](NC(C)=O)C(=O)N[C@H]1CSSC[C@@H](C(N)=O)NC(=O)[C@H](Cc2ccc3ccccc3c2)NC(=O)[C@H](CCCNC(=N)N)NC(=O)[C@@H](Cc2ccc3ccccc3c2)NC(=O)[C@H](Cc2c[nH]cn2)NC(=O)[C@@H](C)NC1=O
B4: Ac-Cha-c(Cys-His-D-Phe-Arg-Trp-Gaba-Cys)-NH2 (peptide)
chain: Ac-[Cha]CH[dF]RW[GABA]C-NH2
modifications: disulfide 2-8
SMILES: CC(=O)N[C@@H](CC1CCCCC1)C(=O)N[C@H]1CSSC[C@@H](C(N)=O)NC(=O)CCCNC(=O)[C@H](Cc2c[nH]c3ccccc23)NC(=O)[C@H](CCCNC(=N)N)NC(=O)[C@@H](Cc2ccccc2)NC(=O)[C@H](Cc2c[nH]cn2)NC1=O
B5: Ac-Nle-c(Cys-D-Cha-His-D-Phe-Arg-Trp-Cys)-NH2 (peptide)
chain: Ac-[Nle]C[dCha]H[dF]RWC-NH2
modifications: disulfide 2-8
SMILES: CCCC[C@H](NC(C)=O)C(=O)N[C@H]1CSSC[C@@H](C(N)=O)NC(=O)[C@H](Cc2c[nH]c3ccccc23)NC(=O)[C@H](CCCNC(=N)N)NC(=O)[C@@H](Cc2ccccc2)NC(=O)[C@H](Cc2c[nH]cn2)NC(=O)[C@@H](CC2CCCCC2)NC1=O
B6: Ac-Cha-c(Asp-His-D-2-Nal-Arg-Trp-Gaba-Lys)-NH2 (peptide)
chain: Ac-[Cha]DH[d2Nal]RW[GABA]K-NH2
modifications: lactam 2-8
SMILES: CC(=O)N[C@@H](CC1CCCCC1)C(=O)N[C@H]1CC(=O)NCCCC[C@@H](C(N)=O)NC(=O)CCCNC(=O)[C@H](Cc2c[nH]c3ccccc23)NC(=O)[C@H](CCCNC(=N)N)NC(=O)[C@@H](Cc2ccc3ccccc3c2)NC(=O)[C@H](Cc2c[nH]cn2)NC1=O
B7: Ac-Nle-c(Asp-His-D-Phe-Arg-Trp-β-Ala-Lys)-NH2 (peptide)
chain: Ac-[Nle]DH[dF]RW[βAla]K-NH2
modifications: lactam 2-8
SMILES: CCCC[C@H](NC(C)=O)C(=O)N[C@H]1CC(=O)NCCCC[C@@H](C(N)=O)NC(=O)CCNC(=O)[C@H](Cc2c[nH]c3ccccc23)NC(=O)[C@H](CCCNC(=N)N)NC(=O)[C@@H](Cc2ccccc2)NC(=O)[C@H](Cc2c[nH]cn2)NC1=O
B8: Ac-2-Nal-c(Cys-His-D-Phe-Arg-Trp-Gaba-Cys)-NH2 (peptide)
chain: Ac-[2Nal]CH[dF]RW[GABA]C-NH2
modifications: disulfide 2-8
SMILES: CC(=O)N[C@@H](Cc1ccc2ccccc2c1)C(=O)N[C@H]1CSSC[C@@H](C(N)=O)NC(=O)CCCNC(=O)[C@H](Cc2c[nH]c3ccccc23)NC(=O)[C@H](CCCNC(=N)N)NC(=O)[C@@H](Cc2ccccc2)NC(=O)[C@H](Cc2c[nH]cn2)NC1=O
B9: Ac-Nle-c(Cys-D-Leu-His-D-Phe-Arg-Trp-Cys)-NH2 (peptide)
chain: Ac-[Nle]C[dL]H[dF]RWC-NH2
modifications: disulfide 2-8
SMILES: CCCC[C@H](NC(C)=O)C(=O)N[C@H]1CSSC[C@@H](C(N)=O)NC(=O)[C@H](Cc2c[nH]c3ccccc23)NC(=O)[C@H](CCCNC(=N)N)NC(=O)[C@@H](Cc2ccccc2)NC(=O)[C@H](Cc2c[nH]cn2)NC(=O)[C@@H](CC(C)C)NC1=O
B10: Ac-c(Cys-D-Ala-His-D-Phe-Arg-2-Nal-Ala-Cys)-NH2 (peptide)
chain: Ac-C[dA]H[dF]R[2Nal]AC-NH2
modifications: disulfide 1-8
SMILES: CC(=O)N[C@H]1CSSC[C@@H](C(N)=O)NC(=O)[C@H](C)NC(=O)[C@H](Cc2ccc3ccccc3c2)NC(=O)[C@H](CCCNC(=N)N)NC(=O)[C@@H](Cc2ccccc2)NC(=O)[C@H](Cc2c[nH]cn2)NC(=O)[C@@H](C)NC1=O

What follows are binders tested against hMC4-R (human), P32245 (assay: competition). Settings: modification not given.
hMC4-R (human), P32245, sequence (P32245 whole entry): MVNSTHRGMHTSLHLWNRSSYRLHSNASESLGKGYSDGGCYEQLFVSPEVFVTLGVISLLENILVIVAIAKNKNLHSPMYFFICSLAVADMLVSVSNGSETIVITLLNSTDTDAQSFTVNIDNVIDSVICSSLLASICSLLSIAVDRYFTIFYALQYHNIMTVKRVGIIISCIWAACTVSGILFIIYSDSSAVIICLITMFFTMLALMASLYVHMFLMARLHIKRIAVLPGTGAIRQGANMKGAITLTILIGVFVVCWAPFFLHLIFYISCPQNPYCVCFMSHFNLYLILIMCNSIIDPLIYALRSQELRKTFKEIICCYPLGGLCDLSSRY

Row | Ki | Binder
1 | 0.931 nM | Ac-[hPhe]DH[d2Nal]RW[GABA]K-NH2 (lactam 2-8) [Ac-hPhe-c(Asp-His-D-2-Nal-Arg-Trp-Gaba-Lys)-NH2]
2 | 0.894 nM | Ac-[Nle]CH[dF]RW[Apn]C-NH2 (disulfide 2-8; reading uncertain) [Ac-Nle-c(Cys-His-D-Phe-Arg-Trp-Apn-Cys)-NH2]
3 | 0.47 nM | [Nle]CH[dF]RW[GABA]C-NH2 (disulfide 2-8) [Nle-c(Cys-His-D-Phe-Arg-Trp-Gaba-Cys)-NH2]
4 | 3.07 nM | B1
5 | 0.85 nM | [Nle]CH[dF]RW[Apn]C-NH2 (disulfide 2-8; reading uncertain) [Nle-c(Cys-His-D-Phe-Arg-Trp-Apn-Cys)-NH2]
6 | 1.23 nM | B2
7 | 3.37 nM | Ac-[hPhe]DH[dF]RW[GABA]K-NH2 (lactam 2-8) [Ac-hPhe-c(Asp-His-D-Phe-Arg-Trp-Gaba-Lys)-NH2]
8 | 2.53 nM | B3
9 | 0.884 nM | B4
10 | 10.1 nM | Ac-[Nle]C[dV]H[dF]RWC-NH2 (disulfide 2-8) [Ac-Nle-c(Cys-D-Val-His-D-Phe-Arg-Trp-Cys)-NH2]
11 | 1.04 nM | Ac-[Nle]DH[dF]RW[GABA]K-NH2 (lactam 2-8) [Ac-Nle-c(Asp-His-D-Phe-Arg-Trp-Gaba-Lys)-NH2]
12 | 11.2 nM | Ac-[Nle]C[dTle]H[dF]RWC-NH2 (disulfide 2-8) [Ac-Nle-c(Cys-D-Tle-His-D-Phe-Arg-Trp-Cys)-NH2]
13 | 0.375 nM | Ac-[Nle]CH[d2Nal]RW[GABA]C-NH2 (disulfide 2-8) [Ac-Nle-c(Cys-His-D-2-Nal-Arg-Trp-Gaba-Cys)-NH2]
14 | 16.6 nM | Ac-[Nle]C[dA]H[d2Nal]R[Bal]C-NH2 (disulfide 2-8; reading uncertain) [Ac-Nle-c(Cys-D-Ala-His-D-2-Nal-Arg-Bal-Cys)-NH2]
15 | 0.998 nM | Ac-[Nle]CH[d2Nal]RW[Ahx]C-NH2 (disulfide 2-8) [Ac-Nle-c(Cys-His-D-2-Nal-Arg-Trp-Ahx-Cys)-NH2]
16 | 1.41 nM | B5
17 | 11.1 nM | Ac-[Nle]DH[dF]RW[Apn]K-NH2 (lactam 2-8; reading uncertain) [Ac-Nle-c(Asp-His-D-Phe-Arg-Trp-Apn-Lys)-NH2]
18 | 2.82 nM | B6
19 | 9 nM | Ac-[Nle]C[dI]H[dF]RWC-NH2 (disulfide 2-8) [Ac-Nle-c(Cys-D-Ile-His-D-Phe-Arg-Trp-Cys)-NH2]
20 | 0.617 nM | B7
21 | 2.94 nM | B8
22 | 4.13 nM | B9
23 | 40.7 nM | B10

Source: patent US20170240595
